Test results reported in publication PMC12143597, “The low endoribonuclease activity and lack of rNMP preference of human mitochondrial topoisomerase 1 protect against ribonucleotide-dependent deletions”.

Key:
[1] = molecular target: T1, scTOP1 catalytically inactive variant (Saccharomyces cerevisiae) (UniProt P04786); assay: fluorescence anisotropy; settings: 20 mM Tris pH 8, 66 mM NaCl, 1 mM DTT, 2% glycerol, 0.5 nM DNA, 0-60 nM TOP1, 10 min at 37 C, errors are SEM of 3-5 experiments
T1 sequence: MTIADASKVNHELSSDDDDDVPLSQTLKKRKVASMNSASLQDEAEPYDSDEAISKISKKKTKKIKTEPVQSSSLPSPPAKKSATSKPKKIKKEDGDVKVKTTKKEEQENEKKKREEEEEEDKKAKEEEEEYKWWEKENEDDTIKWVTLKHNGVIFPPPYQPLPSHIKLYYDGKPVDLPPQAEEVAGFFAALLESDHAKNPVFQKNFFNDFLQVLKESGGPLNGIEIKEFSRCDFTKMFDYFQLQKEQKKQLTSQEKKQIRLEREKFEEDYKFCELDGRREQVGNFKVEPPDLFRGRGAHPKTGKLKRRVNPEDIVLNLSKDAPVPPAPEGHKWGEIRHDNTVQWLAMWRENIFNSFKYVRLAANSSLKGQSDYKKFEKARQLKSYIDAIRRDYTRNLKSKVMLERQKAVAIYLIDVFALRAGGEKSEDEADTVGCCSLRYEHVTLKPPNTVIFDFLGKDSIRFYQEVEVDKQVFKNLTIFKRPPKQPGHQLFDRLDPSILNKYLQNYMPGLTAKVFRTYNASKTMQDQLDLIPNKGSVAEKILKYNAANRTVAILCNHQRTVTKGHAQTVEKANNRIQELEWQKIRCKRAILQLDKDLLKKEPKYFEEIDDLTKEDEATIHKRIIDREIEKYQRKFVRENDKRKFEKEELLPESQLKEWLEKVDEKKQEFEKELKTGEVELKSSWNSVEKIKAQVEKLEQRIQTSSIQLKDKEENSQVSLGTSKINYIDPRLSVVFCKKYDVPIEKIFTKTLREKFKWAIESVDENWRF

[2] = molecular target: hTOP1 catalytically inactive variant (Homo sapiens, UniProt P11387 1-765, Y723F); assay: fluorescence anisotropy; 20 mM Tris pH 8, 66 mM NaCl, 1 mM DTT, 2% glycerol, 0.5 nM DNA, 0-60 nM TOP1, 10 min at 37 C; errors are SEM of 3-5 experiments; settings: protein: recombinant; tags: N-terminal GST tag removed by 3C protease; label: 5'-FAM on strand 1; blunt
[3] = molecular target: T2, hTOP1MT catalytically inactive (Y955F) (Homo sapiens, UniProt Q969P6 =DIKLIDTVDLE+51-601, Y559F;internal_change); assay: as above; settings: protein: recombinant; tags: GST tag removed by 3C protease; label: 5'-FAM on strand 1; blunt
T2 sequence: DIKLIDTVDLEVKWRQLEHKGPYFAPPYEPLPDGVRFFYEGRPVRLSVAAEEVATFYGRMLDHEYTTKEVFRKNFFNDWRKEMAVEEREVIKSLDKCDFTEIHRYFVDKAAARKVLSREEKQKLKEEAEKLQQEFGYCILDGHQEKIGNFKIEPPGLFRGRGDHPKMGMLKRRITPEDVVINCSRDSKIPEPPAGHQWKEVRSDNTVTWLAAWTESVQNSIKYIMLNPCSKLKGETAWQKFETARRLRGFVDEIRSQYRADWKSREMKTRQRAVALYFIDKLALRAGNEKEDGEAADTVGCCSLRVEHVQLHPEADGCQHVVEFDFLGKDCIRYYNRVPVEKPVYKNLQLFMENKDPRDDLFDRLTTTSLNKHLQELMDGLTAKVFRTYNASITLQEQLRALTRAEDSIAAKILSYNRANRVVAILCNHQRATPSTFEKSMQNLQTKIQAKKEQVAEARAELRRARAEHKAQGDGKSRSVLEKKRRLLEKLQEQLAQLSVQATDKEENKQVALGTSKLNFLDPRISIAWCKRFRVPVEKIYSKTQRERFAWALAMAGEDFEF

hTOP1 catalytically inactive variant, sequence (P11387 whole entry Y723F): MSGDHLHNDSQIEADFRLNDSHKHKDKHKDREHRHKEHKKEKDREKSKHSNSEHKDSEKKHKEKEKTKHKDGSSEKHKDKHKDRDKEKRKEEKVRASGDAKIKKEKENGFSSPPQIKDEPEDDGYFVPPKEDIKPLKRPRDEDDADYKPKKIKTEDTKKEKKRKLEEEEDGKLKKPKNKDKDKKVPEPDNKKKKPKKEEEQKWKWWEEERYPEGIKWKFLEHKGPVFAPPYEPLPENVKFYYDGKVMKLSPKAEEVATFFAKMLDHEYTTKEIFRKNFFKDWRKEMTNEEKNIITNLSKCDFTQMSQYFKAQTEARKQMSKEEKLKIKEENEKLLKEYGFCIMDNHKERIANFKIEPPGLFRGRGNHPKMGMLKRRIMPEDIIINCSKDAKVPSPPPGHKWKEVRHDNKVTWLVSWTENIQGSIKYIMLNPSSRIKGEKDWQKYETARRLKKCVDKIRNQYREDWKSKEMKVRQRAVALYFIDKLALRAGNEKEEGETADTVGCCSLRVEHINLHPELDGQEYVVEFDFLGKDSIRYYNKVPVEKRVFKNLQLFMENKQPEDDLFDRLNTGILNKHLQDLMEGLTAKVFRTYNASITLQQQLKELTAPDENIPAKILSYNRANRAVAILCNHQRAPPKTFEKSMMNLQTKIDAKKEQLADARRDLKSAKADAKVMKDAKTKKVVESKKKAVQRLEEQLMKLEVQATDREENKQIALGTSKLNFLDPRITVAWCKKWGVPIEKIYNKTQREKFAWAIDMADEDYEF

## AGCGTTGAAGATATGTGGCAAAACCTTTGT (double strand) [Substrate A]
[1]
  Kd: 4.6 nM

## ACTCGTCACGAGAGAGATGCCACGGTATTTCAAA (double strand) [Substrate D (rG upstream of cleavage site)]
[1]; single ribonucleotide rG at position 16 of strand 1, all else DNA
  Kd: 6 nM

## ACTCGTCACGAGAGAGATGCCACGGTATTTCAAA (double strand) [Substrate C]
[1]
  Kd: 6.6 nM

## AGCGTTGAAGAUATGTGGCAAAACCTTTGT / ACAAAGGTTTTGCCACATATCTTCAACGCT [Substrate B (rU at cleavage site)]
[1]; single ribonucleotide rU at position 12 of strand 1, all else DNA
  Kd: 5.5 nM

B1: Substrate A (dsDNA)
DNA 1: AGCGTTGAAGATATGTGGCAAAACCTTTGT
DNA 2: ACAAAGGTTTTGCCACATATCTTCAACGCT
[2]
  Kd: 0.97 ± 0.06 nM
[3]
  Kd: 8.3 ± 0.59 nM

B2: Substrate D (rG upstream of cleavage site) (dsDNA)
DNA 1: ACTCGTCACGAGAGAGATGCCACGGTATTTCAAA
DNA 2: TTTGAAATACCGTGGCATCTCTCTCGTGACGAGT
modifications: single ribonucleotide rG at position 16 of strand 1; all else DNA
[2]
  Kd: 1.2 ± 0.09 nM
[3]
  Kd: 4.6 ± 0.37 nM

B3: Substrate C (dsDNA)
DNA 1: ACTCGTCACGAGAGAGATGCCACGGTATTTCAAA
DNA 2: TTTGAAATACCGTGGCATCTCTCTCGTGACGAGT
[2]
  Kd: 1.8 ± 0.05 nM
[3]
  Kd: 4.7 ± 0.83 nM
